In patent publication WO2019006280A1 (dated 2019):

Target: T1, cell-surface CD33 on the CD33-positive AML cell line MV4-11 (UniProt P20138 18-364)
T1 construct: whole, on cells; Endogenous CD33 of the MV4-11 cell line; also called cell-surface expressed CD33; CD33-postive MV4-11 cells
Experiment: flow cytometry on MV4-11 cells, binder at 10 ug/ml, PE anti-flag

T1 sequence (P20138 18-364 limits assumed): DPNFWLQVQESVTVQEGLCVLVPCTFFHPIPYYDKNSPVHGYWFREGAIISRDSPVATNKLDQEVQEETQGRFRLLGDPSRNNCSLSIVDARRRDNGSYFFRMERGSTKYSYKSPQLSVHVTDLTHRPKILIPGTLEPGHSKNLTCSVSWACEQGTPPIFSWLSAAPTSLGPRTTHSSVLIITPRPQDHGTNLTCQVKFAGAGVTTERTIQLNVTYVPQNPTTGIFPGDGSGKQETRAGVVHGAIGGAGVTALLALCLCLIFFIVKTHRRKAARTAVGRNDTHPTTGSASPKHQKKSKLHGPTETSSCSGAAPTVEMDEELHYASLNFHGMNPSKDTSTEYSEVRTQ

binding result: binds
B1: ml033-2 VH domain antibody (VHH)
VHH: EVQLVESGGGLVQPGGSLRLSCAASGFTFSSYGMSWVRQAPRKGLEWIGEINHSGSTNYNPSLKSRVTISRDNSKNTLYLQMNSLRAEDTATYYCARPLNYYYYYMDVWGKGTTVTVSS
notes: also called single domain antibody ml 033-2; m1033-2; not shown: His and Flag tags
